T1: mouse SPNS2 (mouse, UniProt Q91VM4 1-549)
T1 sequence: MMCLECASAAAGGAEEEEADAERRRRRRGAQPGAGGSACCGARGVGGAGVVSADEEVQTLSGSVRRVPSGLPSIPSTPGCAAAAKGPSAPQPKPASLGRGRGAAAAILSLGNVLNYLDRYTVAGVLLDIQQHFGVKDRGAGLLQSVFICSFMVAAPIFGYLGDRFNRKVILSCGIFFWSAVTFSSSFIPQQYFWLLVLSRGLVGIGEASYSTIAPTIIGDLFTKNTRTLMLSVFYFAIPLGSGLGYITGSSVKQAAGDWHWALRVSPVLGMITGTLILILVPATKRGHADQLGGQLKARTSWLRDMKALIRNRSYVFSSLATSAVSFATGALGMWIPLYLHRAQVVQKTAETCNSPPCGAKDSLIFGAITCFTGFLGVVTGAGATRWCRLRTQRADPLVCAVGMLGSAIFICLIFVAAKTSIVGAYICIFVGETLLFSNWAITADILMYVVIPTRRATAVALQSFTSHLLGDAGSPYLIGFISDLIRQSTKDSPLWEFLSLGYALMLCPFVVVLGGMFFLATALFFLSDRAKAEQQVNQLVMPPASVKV

T2: human SPNS2 (human, UniProt Q8IVW8 1-549)
T2 sequence: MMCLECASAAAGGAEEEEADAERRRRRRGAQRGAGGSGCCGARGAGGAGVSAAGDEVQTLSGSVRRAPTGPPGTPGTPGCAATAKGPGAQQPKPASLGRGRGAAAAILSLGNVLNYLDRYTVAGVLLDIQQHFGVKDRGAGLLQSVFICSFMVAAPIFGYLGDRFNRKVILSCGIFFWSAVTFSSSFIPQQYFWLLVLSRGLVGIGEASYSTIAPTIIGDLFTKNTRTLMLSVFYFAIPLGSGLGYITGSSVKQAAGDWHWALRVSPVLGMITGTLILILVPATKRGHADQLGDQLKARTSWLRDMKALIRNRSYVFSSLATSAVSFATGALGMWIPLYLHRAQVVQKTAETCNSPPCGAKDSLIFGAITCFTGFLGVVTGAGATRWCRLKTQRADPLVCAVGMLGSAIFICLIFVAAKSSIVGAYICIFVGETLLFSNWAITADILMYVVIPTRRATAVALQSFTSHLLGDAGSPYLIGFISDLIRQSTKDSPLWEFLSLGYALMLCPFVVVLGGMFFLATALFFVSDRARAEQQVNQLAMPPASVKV

B1: 94-1311E (antibody, V domains shown)
VH: EVQLQQSGAGLVRPRTSVRLSCKISGDSITAYYVHFVKQRPGQGLEWIGRIDPEDDSTKYSEKFKNKATLTADVSSSTAYLILSSLTSDDSATYFCSTLTGLDYWGQGVMVTVSS
VL: DIQMTQSPPVLSASVGDRVTLSCKASQSVHNKLDWYQQKHGEAPKLLIYYTHNLQTGIPSRFSGSGSGSDYTLTISSLRAEDVATYYCFQYYSGWTFGGGTKLEMKR
B2: 33-0503E (antibody, IgG2b, V domains shown)
VH: EVQLVESGGGLVRPGGSMKLSCGASGFIFDNYYMTWVRQAPTKGLEWVASISSSGGNTYYRDSVRGRFTISRDNAGNTLSLQMGSLRAEDTATYHCAKEGYRGRYFDYWGQGVMVTVSS
VL: QVVLTQPNSVSTNLGSTVKLSCKRTTGNIGSNYVNWYQQHEGRSPTTMIYRDDERPDGVPDRFSGSIDRSSNSALLTINNVQTEDEAEYFCQSYSSGIIFGGGTKLTVL
B3: 96-1403F (antibody, IgG2b, V domains shown)
VH: EVQLVETGGGLVRPGSSLKLSCATSGFTFSDTWMSWVRQAPGKGLEWVALIKDKNSNSEANYAESIKGRFTISRDDSKSRVYLQMNTLRDQDTATYYCTRHEDFYYYSGYYFDYWGQGVMVTVSS
VL: DIVLTQSPPTLSVTPGESVSLSCRASQGISTSIHWYQQRSNESPRLLIKYASQSIAGIPSRFSGSGSGTDFILSINRVESEDFSVYYCQQTYSLPLTFGPGTKLEVKR
B4: 49-0703G (antibody, IgG2b, V domains shown)
VH: EVQLVESGGGLVQPGRSMKLSCAASGFTFSNHYMAWVRQAPTKGLEWVASISTGGGNTYYRDSVKGRFTISRDNAKSTLYLQMDSLRSEDTATYYCARQDYSNYMGGFAYWGQGTLVTVSS
VL: QFVLTQPNSVSTNLGSTVKLSCKRSTGNIGNNYVNWYQQYEGRSPTTMIYRDDERPDGVPDRFSGSIDRSSNSALLTINNVQTEDEADYFCQSFSNGMFIFAGGTQLTVL

Legend:
[1] = molecular target: T1, mouse SPNS2; experiment: cell-based or functional assay
[2] = molecular target: T2, human SPNS2; experiment: cell-based or functional assay
[3] = molecular target: T1, mouse SPNS2; experiment: cell-based or functional assay; remark: listed apart in the source
[4] = molecular target: T2, human SPNS2; experiment: cell-based or functional assay; remark: listed apart in the source
[5] = molecular target: T1, mouse SPNS2; experiment: Cell ELISA
Experimental: (§1) Human and mouse SPNS2 and human SphK1 double stable expression Flp-in 293 cells were added to a poly D lysine coat 96-well plate (Corning, 356461) in a density of 1×10⁵ cells/well and was cultivated overnight, and then the culture medium was removed. An anti-SPNS2 antibody solution was adjusted into 20 μg/mL using 0.2% FBS/3% BSA/PBS, and 0.2% FBS/3% BSA/PBS (60 μL) was added to the antibody diluted solution (20 μL) to prepare seven-step diluted solutions by four fold serial dilution. Each diluted solution of the anti-SPNS2 antibody was added in a volume of 30 μL/well, and reacted for about one hour at room temperature. The antibody solution was removed, and the residue was washed with PBS containing 0.05% Tween 20 (PBS-T) two times, and fixed for about ten minutes at room temperature using 10% buffered formalin (Mildform (Trade mark) 10NM, Wako). After washing with PBS-T one time, a 5000-fold diluted solution of anti-rat IgG antibody HRP conjugate (Southern Biotech, 3030-05) in 0.2% FBS/3% BSA/PBS was added to each well (30 μL), and reacted for about one hour at room temperature. After washing with PBS-T four times, a substrate (TMB; 3, 3′, 5, 5′-tetramethylbenzidin) was added to each well (100 μL) to initiate the reaction. After 20 minutes, 2N sulfuric acid was added to each well (100 μL), and absorbance at 450 nm and 550 nm was measured. […] Each antibody bound to human SPNS2 and mouse SPNS2.

[6] = molecular target: T2, human SPNS2; experiment: Cell ELISA
Experimental: as §1

Binder | pIC50, S1P transport inhibition (LC-MS/MS of S1P) [1] | pIC50, S1P transport inhibition (LC-MS/MS of S1P) [2] | pIC50, S1P transport inhibition (S1PR3 Ca2+ FLIPR bioassay) [3] | pIC50, S1P transport inhibition (S1PR3 Ca2+ FLIPR bioassay) [4] | Emax [5] [absorbance] | pEC50 [5] | Emax [6] [absorbance] | pEC50 [6]
B1 | 8.2 pIC50 (M) | 7.9 pIC50 (M) | 8.1 pIC50 (M) | 7.8 pIC50 (M) | 1.52 | 8.2 pEC50 (M) | 1.61 | 8.34 pEC50 (M)
B2 | 7.7 pIC50 (M) | 7.4 pIC50 (M) | 7.5 pIC50 (M) | 7 pIC50 (M) | 2.2 | 7.66 pEC50 (M) | 2.03 | 8.12 pEC50 (M)
B3 | 7.7 pIC50 (M) | 7 pIC50 (M) | 7.3 pIC50 (M) | 6.9 pIC50 (M) | 1.78 | 7.42 pEC50 (M) | 1.86 | 7.76 pEC50 (M)
B4 | 7.6 pIC50 (M) | 7.4 pIC50 (M) | 7.3 pIC50 (M) | 7 pIC50 (M) | 1.67 | 8.09 pEC50 (M) | 1.77 | 8.42 pEC50 (M)

From patent publication US20210147523A1 (TEIJIN PHARMA, published 2021)
